Results: the supplement of paper PMC11908140

B1: library; numbered along this chain (parent)
chain: MRKPRAAVGSGHRKQAASQEGRQKHAKNNSQAKPSACDGLARQPEEVVLQASVSSYHLFRDVAEVTAFRGSLLSWYDQEKRDLPWRRRAEDEMDLDRRAYAVWVSEVMLQQTQVATVINYYTGWMQKWPTLQDLASASLEEVNQLWAGLGYYSRGRRLQEGARKVVEELGGHMPRTAETLQQLLPGVGRYTAGAIASIAFGQATGVVDGNVARVLCRVRAIGADPSSTLVSQQLWGLAQQLVDPARPGDFNQAAMELGATVCTPQRPLCSQCPVESLCRARQRVEQEQLLASGSLSGSPDVEECAPNTGQCHLCLPPSEPWDQTLGVVNFPRKASRKPPREESSATCVLEQPGALGAQILLVQRPNSGLLAGLWEFPSVTWEPSEQLQRKALLQELQRWAGPLPATHLRHLGEVVHTFSHIKLTYQVYGLALEGQTPVTTVPPGARWLTQEEFHTAAVSTAMKKVFRVYQGQQPGTCMGSKRSQVSSPCSRKKPRMGQQVLDNFFRSHISTDAHSLNSAAQ

Variants of: B1
Experiment: 8OG:A repair function score (normalized; synonymous = 0, nonsense = -1) (normalized log-likelihood score); higher = more repair activity (WT-like)
Details: with 8OG:A DNA repair reporter (GFP) in HEK-293 MUTYH KO cells
How it was run: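 With 10 pg/ml doxycycline, MUTYH knockout HEK-293 cells carrying lentiviral MUTYH cDNA NNN codon-scan libraries were co-transfected with mCherry and an 8OG:A GFP repair reporter. Viable mCherry+ cells were sorted into GFP+ (repair) and GFP− bins at 72 h, three replicates per tile, and tile amplicons were sequenced. Per-tile Rosace fitness scores were then normalized into a repair function score anchored on synonymous and nonsense distributions. Medians were fixed at 0 for synonymous and -1 for nonsense, excluding variants under 300 counts per million at the start.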

Variant | 8OG:A repair function score
MRKPRAAVGSGHRKQAASQEGRQKHAKNNSQAKPSACDGLARQPEEVVLQASVSSYHLFRDVAEVTAFRGSLLSWYDQEKRDLPWRRRAEDEMDLDRRAYAVWVSEVMLQQTQVATVINYYTGWMQKWPTLQDLASASLEEVNQLWAGLGYYSRGRRLQEGARKVVEELGGHMPRTAETLQQLLPGVGRYTAGAIASIAFGQATGVVDGNVARVLCRVRAIGADPSSTLVSQQLWGLAQQLVDPARPGDFNQAAMELGATVCTPQRPLCSQCPVESLCRARQRVEQEQLLASGSLSGSPDVEECAPNTGQCHLCLPPSEPWDQTLGVVNFPRKASRKPPREESSATCVLEQPGALGAQILLVQRPNSGLLAGLWEFPSVTWEPSEQLQRKALLQELQRWAGPLPATHLRHLGEVVHTFSHIKLTYQVYGLALEGQTPVTTVPPGARWLTQEEFHTAAVSTAMKKVFRVYQGQQPGTCMESKRSQVSSPCSRKKPRMGQQVLDNFFRSHISTDAHSLNSAAQ [G479E] | 0.0225
MRKPRAAVGSGHRKQAASQEGRQKHAKNNSQAKPSACDGLARQPEEVVLQASVSSYHLFRDVAEVTAFRGSLLSWYDQEKRDLPWRRRAEDEMDLDRRAYAVWVSEVMLQQTQVATVINYYTGWMQKWPTLQDLASASLEEVNQLWAGLGYYSRGRRLQEGARKVVEELGGHMPRTAETLQQLLPGVGRYTAGAIASIAFGQATGVVDGNVARVLCRVRAIGADPSSTLVSQQLWGLAQQLVDPARPGDFNQAAMELGATVCTPQRPLCSQCPVESLCRARQRVEQEQLLASGSLSGSPDVEECAPNTGQCHLCLPPSEPWDQTLGVVNFPRKASRKPPREESSATCVLEQPGALGAQILLVQRPNSGLLAGLWEFPSVTWEPSEQLQRKALLQELQRWAGPLPATHLRHLGEVVHTFSHIKLTYQVYGLALEGQTPVTTVPPGARWLTQEEFHTAAVSTAMKKVFRVYQGQQPGTCMCSKRSQVSSPCSRKKPRMGQQVLDNFFRSHISTDAHSLNSAAQ [G479C] | -0.0498
MRKPRAAVGSGHRKQAASQEGRQKHAKNNSQAKPSACDGLARQPEEVVLQASVSSYHLFRDVAEVTAFRGSLLSWYDQEKRDLPWRRRAEDEMDLDRRAYAVWVSEVMLQQTQVATVINYYTGWMQKWPTLQDLASASLEEVNQLWAGLGYYSRGRRLQEGARKVVEELGGHMPRTAETLQQLLPGVGRYTAGAIASIAFGQATGVVDGNVARVLCRVRAIGADPSSTLVSQQLWGLAQQLVDPARPGDFNQAAMELGATVCTPQRPLCSQCPVESLCRARQRVEQEQLLASGSLSGSPDVEECAPNTGQCHLCLPPSEPWDQTLGVVNFPRKASRKPPREESSATCVLEQPGALGAQILLVQRPNSGLLAGLWEFPSVTWEPSEQLQRKALLQELQRWAGPLPATHLRHLGEVVHTFSHIKLTYQVYGLALEGQTPVTTVPPGARWLTQEEFHTAAVSTAMKKVFRVYQGQQPGTCMHSKRSQVSSPCSRKKPRMGQQVLDNFFRSHISTDAHSLNSAAQ [G479H] | 0.0228
MRKPRAAVGSGHRKQAASQEGRQKHAKNNSQAKPSACDGLARQPEEVVLQASVSSYHLFRDVAEVTAFRGSLLSWYDQEKRDLPWRRRAEDEMDLDRRAYAVWVSEVMLQQTQVATVINYYTGWMQKWPTLQDLASASLEEVNQLWAGLGYYSRGRRLQEGARKVVEELGGHMPRTAETLQQLLPGVGRYTAGAIASIAFGQATGVVDGNVARVLCRVRAIGADPSSTLVSQQLWGLAQQLVDPARPGDFNQAAMELGATVCTPQRPLCSQCPVESLCRARQRVEQEQLLASGSLSGSPDVEECAPNTGQCHLCLPPSEPWDQTLGVVNFPRKASRKPPREESSATCVLEQPGALGAQILLVQRPNSGLLAGLWEFPSVTWEPSEQLQRKALLQELQRWAGPLPATHLRHLGEVVHTFSHIKLTYQVYGLALEGQTPVTTVPPGARWLTQEEFHTAAVSTAMKKVFRVYQGQQPGTCMISKRSQVSSPCSRKKPRMGQQVLDNFFRSHISTDAHSLNSAAQ [G479I] | -0.00859
MRKPRAAVGSGHRKQAASQEGRQKHAKNNSQAKPSACDGLARQPEEVVLQASVSSYHLFRDVAEVTAFRGSLLSWYDQEKRDLPWRRRAEDEMDLDRRAYAVWVSEVMLQQTQVATVINYYTGWMQKWPTLQDLASASLEEVNQLWAGLGYYSRGRRLQEGARKVVEELGGHMPRTAETLQQLLPGVGRYTAGAIASIAFGQATGVVDGNVARVLCRVRAIGADPSSTLVSQQLWGLAQQLVDPARPGDFNQAAMELGATVCTPQRPLCSQCPVESLCRARQRVEQEQLLASGSLSGSPDVEECAPNTGQCHLCLPPSEPWDQTLGVVNFPRKASRKPPREESSATCVLEQPGALGAQILLVQRPNSGLLAGLWEFPSVTWEPSEQLQRKALLQELQRWAGPLPATHLRHLGEVVHTFSHIKLTYQVYGLALEGQTPVTTVPPGARWLTQEEFHTAAVSTAMKKVFRVYQGQQPGTCMASKRSQVSSPCSRKKPRMGQQVLDNFFRSHISTDAHSLNSAAQ [G479A] | 0.00119
MRKPRAAVGSGHRKQAASQEGRQKHAKNNSQAKPSACDGLARQPEEVVLQASVSSYHLFRDVAEVTAFRGSLLSWYDQEKRDLPWRRRAEDEMDLDRRAYAVWVSEVMLQQTQVATVINYYTGWMQKWPTLQDLASASLEEVNQLWAGLGYYSRGRRLQEGARKVVEELGGHMPRTAETLQQLLPGVGRYTAGAIASIAFGQATGVVDGNVARVLCRVRAIGADPSSTLVSQQLWGLAQQLVDPARPGDFNQAAMELGATVCTPQRPLCSQCPVESLCRARQRVEQEQLLASGSLSGSPDVEECAPNTGQCHLCLPPSEPWDQTLGVVNFPRKASRKPPREESSATCVLEQPGALGAQILLVQRPNSGLLAGLWEFPSVTWEPSEQLQRKALLQELQRWAGPLPATHLRHLGEVVHTFSHIKLTYQVYGLALEGQTPVTTVPPGARWLTQEEFHTAAVSTAMKKVFRVYQGQQPGTCMKSKRSQVSSPCSRKKPRMGQQVLDNFFRSHISTDAHSLNSAAQ [G479K] | 0.00166
